Test in all cases: fluorescence polarization
(Fluorescence polarisation rises when a labelled molecule tumbles more slowly, as on binding a larger partner.)

Series [1] has as its target T1, hRev1 330-833 EY (human, UniProt Q9UBZ9 330-833, E466A;Y470A).
T1 sequence: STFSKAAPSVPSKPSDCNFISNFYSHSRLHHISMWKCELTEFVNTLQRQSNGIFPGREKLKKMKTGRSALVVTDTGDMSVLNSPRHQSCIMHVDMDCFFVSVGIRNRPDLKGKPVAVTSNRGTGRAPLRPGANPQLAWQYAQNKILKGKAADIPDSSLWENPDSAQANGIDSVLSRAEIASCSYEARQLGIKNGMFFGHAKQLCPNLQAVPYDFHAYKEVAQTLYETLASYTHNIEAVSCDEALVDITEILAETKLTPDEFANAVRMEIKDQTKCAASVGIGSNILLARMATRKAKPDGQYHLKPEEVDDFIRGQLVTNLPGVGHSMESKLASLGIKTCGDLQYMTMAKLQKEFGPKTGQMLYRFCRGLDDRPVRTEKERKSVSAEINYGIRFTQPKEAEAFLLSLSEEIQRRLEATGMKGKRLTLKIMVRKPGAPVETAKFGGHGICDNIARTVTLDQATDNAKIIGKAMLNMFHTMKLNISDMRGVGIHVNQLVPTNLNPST

The target of series [2] is T2, yRev1 305-746 (Saccharomyces cerevisiae, UniProt P12689 305-746).
T2 sequence: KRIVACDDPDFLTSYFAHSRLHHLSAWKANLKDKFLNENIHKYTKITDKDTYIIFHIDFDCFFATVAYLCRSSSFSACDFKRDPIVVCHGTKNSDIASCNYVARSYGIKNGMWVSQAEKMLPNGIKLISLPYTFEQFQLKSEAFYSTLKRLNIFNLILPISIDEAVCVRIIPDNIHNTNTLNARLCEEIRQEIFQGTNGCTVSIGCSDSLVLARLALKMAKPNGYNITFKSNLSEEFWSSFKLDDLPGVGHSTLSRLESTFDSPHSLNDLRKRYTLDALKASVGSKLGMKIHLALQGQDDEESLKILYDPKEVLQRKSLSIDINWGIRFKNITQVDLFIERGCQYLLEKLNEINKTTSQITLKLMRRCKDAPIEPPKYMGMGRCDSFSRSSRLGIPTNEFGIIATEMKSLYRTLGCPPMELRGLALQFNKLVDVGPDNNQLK

The target in series [3] is T3, hRev1 330-833 WT (human, UniProt Q9UBZ9 330-833).
T3 sequence: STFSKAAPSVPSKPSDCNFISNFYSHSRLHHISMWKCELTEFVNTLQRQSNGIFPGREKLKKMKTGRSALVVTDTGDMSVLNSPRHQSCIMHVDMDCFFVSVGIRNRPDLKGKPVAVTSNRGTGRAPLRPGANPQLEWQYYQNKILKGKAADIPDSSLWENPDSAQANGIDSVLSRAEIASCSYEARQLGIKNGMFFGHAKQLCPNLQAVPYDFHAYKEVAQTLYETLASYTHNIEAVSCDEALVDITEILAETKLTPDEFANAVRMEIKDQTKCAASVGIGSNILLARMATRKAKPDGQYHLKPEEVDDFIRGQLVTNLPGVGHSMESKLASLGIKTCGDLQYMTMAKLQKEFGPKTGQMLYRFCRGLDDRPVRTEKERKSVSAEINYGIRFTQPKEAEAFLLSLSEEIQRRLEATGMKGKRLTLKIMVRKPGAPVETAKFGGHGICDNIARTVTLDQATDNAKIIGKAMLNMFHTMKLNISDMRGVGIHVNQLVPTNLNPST

B1: p/t non-G4 TBA (mixed)
DNA 1: TGCTTGCTGTGCTTGCTATGAGATGAT
DNA 2: ATCATCTCATA
As for B1, the Kd (in general, the concentration at which binding is half-saturated) in series [1] worked out at 230 ± 30 nM; in series [2], 450 ± 30 nM.

In series [2], TTGCGTTAGCGTTAGCGTTAGCGATATGAGATGAT (ssDNA) [ss non-G4 Telo-4] showed a Kd of 310 ± 40 nM.

In the case of TGCTTGCTGTGCTTGCTATGAGATGAT (ssDNA) [ss non-G4 TBA], the Kd in series [1] stood at 150 ± 20 nM; in series [2], 450 ± 70 nM.

B2: p/t non-G4 Myc (mixed)
DNA 1: AGCGTGCGTAGCGTGCGTTATGAGATGAT
DNA 2: ATCATCTCATA
Take B2: the Kd in series [1] stood at 830 ± 120 nM; in series [2], 480 ± 40 nM.

For GTGAGATGTTGACCATGGGTGCGTCTGCGGCTGGCTCGAGGC (ssDNA) [ss-42-mer non-G4], the Kd came out at 270 ± 50 nM in series [1], 340 ± 60 nM in series [2] and 85 ± 11 nM in series [3].

B3: 23/42-mer non-G4 (mixed)
DNA 1: GTGAGATGTTGACCATGGGTGCGTCTGCGGCTGGCTCGAGGC
DNA 2: TTTGCCTCGAGCCAGCCGCAGACGCA
Turning to B3, the Kd in series [1] was 300 ± 40 nM; in series [2], 460 ± 50 nM; in series [3], 210 ± 30 nM.

B4: 13/42-mer non-G4 (mixed)
DNA 1: GTGAGATGTTGACCATGGGTGCGTCTGCGGCTGGCTCGAGGC
DNA 2: TTTGCCTCGAGCCAGC
In the case of B4, the figures for the Kd in series [1] and in series [3] were 250 ± 30 nM and 230 ± 30 nM, respectively.

On to AGCGTGCGTAGCGTGCGTTATGAGATGAT (ssDNA) [ss non-G4 Myc], for which the Kd worked out at 650 ± 130 nM in series [1] and 340 ± 60 nM in series [2].

Turning to TGAGGGTGGGTAGGGTGGGTGCGTCTGCGGCTGGCTCGAGGC (structured_DNA) [ss-42-mer Myc G4], the Kd stood at 87 ± 10 nM in series [1], 230 ± 50 nM in series [2] and 4 ± 1 nM in series [3].

B5: 23/42-mer G4 (mixed)
DNA 1: TGAGGGTGGGTAGGGTGGGTGCGTCTGCGGCTGGCTCGAGGC
DNA 2: TTTGCCTCGAGCCAGCCGCAGACGCA
In series [3], B5 registered a Kd of 88 ± 12 nM.

B6: 13/42-mer G4 (mixed)
DNA 1: TGAGGGTGGGTAGGGTGGGTGCGTCTGCGGCTGGCTCGAGGC
DNA 2: TTTGCCTCGAGCCAGC
Take B6: the Kd in series [3] was determined as 31 ± 6 nM.

The values are drawn from article PMC10320842.
